Assay results published in patent publication US9872893B2, “Endolysins active against Staphylococcus bacteria, pharmaceutical compositions, and methods relating thereto” (priority 2014, dated 2018).

Assays:
[1] = test system: stationary phase S. aureus NRS-14; assay: turbidity reduction assay (lytic activity); assay type: cell-based, Staphylococcus aureus; conditions: equimolar concentrations; for lytic activity (in words): isolated domain
Method: Lytic activity was based on turbidity reduction assay (Nelson D C et al. (2012) Endolysins as antimicrobials. Adv Virus Res 83:299-365). Briefly, bacterial cells were centrifuged (4,000 RPM, 5 minutes, 4° C.), re-suspended in buffer and mixed 1:1 (v/v) with endolysin to a final OD600=1. OD600 readings were taken every 15 seconds for 20 minutes at 37° C. Endolysin activity was equated to the Vmax dictated by the linear portion of the resulting killing curve. Each experiment was performed in triplicate.
To determine dose response, PlyGRCS was serially diluted and each dosage (100 μl) was added in triplicate to a 96-well polystyrene microtiter plate (Nest Biotech Co, Ltd) just before addition of bacterial cells (100 μl) according to the turbidity reduction assay described above. For optimum pH determination, bacterial cells were suspended in 40 mM boric acid/phosphoric acid (BP) buffer, pH 3-11, and were challenged against PlyGRCS. The influence of NaCl on PlyGRCS activity was tested in BP buffer at the experimentally determined pH optimum using the same assay. The effect of divalent cations was determined using the turbidity reduction assay with several modifications. First, PlyGRCS was incubated at room temperature in PBS or PBS supplemented with 5 mM EDTA for 10 minutes. Second, the EDTA-treated samples received either no further treatment, or were supplemented with 6 mM CaCl2 or 6 mM MgCl2. Finally, the lytic active of the samples was then immediately assayed and compared to PlyGRCS in PBS prior to EDTA inactivation. Kinetic stability was evaluated (Son B et al. (2012) Characterization of LysB4, an endolysin from the Bacillus cereus-infecting bacteriophage B4. BMC Microbiol 12:33) with minor modifications. Lytic assays were performed in optimal conditions after PlyGRCS was incubated at indicated temperatures for 30 minutes and subsequently recovered on ice for 5 minutes.

[2] = circular dichroism melting experiments; assay type: physicochemical; conditions: 0.1 mg/ml, 20 mM sodium phosphate buffer pH 7, 20-95° C. at 1° C./min
Method: CD experiments for wild-type (WT) and active-site mutants were performed on a Chirascan CD spectrometer (Applied Photophysics) equipped with a thermoelectrically controlled cell holder. CD spectra were obtained in the far-UV range (190-260 nm) in a 1 mm path length quartz cuvette at 1 nm steps with 5 second signal averaging per data point. Spectra were collected in triplicate, followed by averaging, baseline subtraction, smoothing and conversion to mean residue ellipticity (MRE) by the Pro-Data software (Applied Photophysics). Secondary structure prediction was performed using the Provencher and Glockner method (Provencher S W & Glockner J (1981) Estimation of globular protein secondary structure from circular dichroism. Biochemistry 20(1):33-7) provided by DICHROWEB (Whitmore L & Wallace B A (2004) DICHROWEB, an online server for protein secondary structure analyses from circular dichroism spectroscopic data. Nucleic Acids Res 32:W668-73).
Melting experiments were performed by heating PlyGRCS at a 0.1 mg/ml concentration in 20 mM sodium phosphate buffer pH 7 from 20° C. to 95° C. using a 1° C./min heating rate. MRE was monitored at 218 nm in a 1 mm path length quartz cuvette at 0.5° C. steps with 5 second signal averaging per data point. The melting data was smoothed, normalized and fit with a Boltzmann sigmoidal curve. The first derivative of the melting curve was then taken to determine the temperature (Tm) at which the folded and unfolded protein species in solution were at equilibrium (Fallas J A & Hartgerink J D (2012) Computational design of self-assembling register-specific collagen heterotrimers. Nat Commun 3:1087).

S. aureus NRS-14 = assay: cell wall binding by fluorescence microscopy; parameters: species or system Staphylococcus aureus; conditions: 10 μg, detected via anti-His antibody and AlexaFluor 488 secondary
Method: An overnight culture of S. aureus NRS-14 was concentrated 5× in BP buffer and was incubated at room temperature with 10 μg SH3_5GRCS containing the 6× His tag for 10 minutes. A control without SH3_5GRCS was also utilized. The samples were washed with PBS and incubated for 10 minutes at room temperature with 1 μl mouse anti-His antibody (Gen Script). After washing with PBS, AlexaFluor-488 conjugated goat anti-mouse IgG (H+L) antibody (1 μl) (Invitrogen) was incubated with samples for an additional 10 minutes. Samples were washed again with PBS before being visualized via fluorescence and bright field microscopy. An Eclipse 80i epifluorescent microscope workstation (Nikon) with X-Cite 120 illuminator (EXFO) and Retiga 2000R CCD camera was used. NIS-Elements software (Nikon) was used for image analysis.

[3] = test system: Staphylococcus aureus, NRS-14; assay: plate lysis assay (spectrum of lytic activity); assay type: cell-based; parameters: key to strength of lytic zone: strong lytic zone = ++; weak lytic zone = +; no lytic zone = −; conditions: 6 μg; S. aureus NRS-14, VISA
Method: (§1) The PlyGRCS spectrum of lytic activity was performed (Schmelcher M et al. (2012) Chimeric phage lysins act synergistically with lysostaphin to kill mastitis-causing Staphylococcus aureus in murine mammary glands. Appl Environ Microbiol 78(7):2297-305) with minor modifications. Bacterial cells were diluted in sterile PBS to an OD600=1, and 100 μl was spread on each plate. 10 μl spots (600 μg/ml) of PlyGRCS or CHAPGRCS were applied. Plates were incubated overnight at 37° C. Strength of lytic zones was defined qualitatively.

[4] = test system: Staphylococcus aureus, NRS-384; assay: plate lysis assay (spectrum of lytic activity); assay type: cell-based; parameters: key to strength of lytic zone: strong lytic zone = ++; weak lytic zone = +; no lytic zone = −; conditions: 6 μg
Method: as §1

[5] = test system: Staphylococcus aureus, NRS-71; assay: plate lysis assay (spectrum of lytic activity); assay type: cell-based; parameters: key to strength of lytic zone: strong lytic zone = ++; weak lytic zone = +; no lytic zone = −; conditions: 6 μg
Method: as §1

[6] = test system: Staphylococcus epidermidis, NRS-101; assay: plate lysis assay (spectrum of lytic activity); assay type: cell-based; parameters: key to strength of lytic zone: strong lytic zone = ++; weak lytic zone = +; no lytic zone = −; conditions: 6 μg
Method: as §1

Bacillus pumulis, BJ0055 = assay: plate lysis assay (spectrum of lytic activity); assay type: cell-based; parameters: key: strong lytic zone = ++; weak lytic zone = +; no lytic zone = −; conditions: 6 μg
Method: as §1

[7] = test system: Enterococcus facealis, EF24; assay: plate lysis assay (spectrum of lytic activity); assay type: cell-based; parameters: key: strong lytic zone = ++; weak lytic zone = +; no lytic zone = −; conditions: 6 μg
Method: as §1

[8] = test system: Staphylococcus aureus, NRS-382; assay: plate lysis assay (spectrum of lytic activity); assay type: cell-based; parameters: key: strong lytic zone = ++; weak lytic zone = +; no lytic zone = −; conditions: 6 μg; S. aureus NRS-382, MRSA
Method: as §1

[9] = test system: Staphylococcus aureus, NRS-385; assay: plate lysis assay (spectrum of lytic activity); assay type: cell-based; parameters: key: strong lytic zone = ++; weak lytic zone = +; no lytic zone = −; conditions: 6 μg; S. aureus NRS-385, MRSA
Method: as §1

[10] = test system: Streptococcus equi, ATCC 9528; assay: plate lysis assay (spectrum of lytic activity); assay type: cell-based; parameters: key: strong lytic zone = ++; weak lytic zone = +; no lytic zone = −; conditions: 6 μg
Method: as §1

[11] = test system: Streptococcus pneumoniae, ATCC BAA-334; assay: plate lysis assay (spectrum of lytic activity); assay type: cell-based; parameters: key: strong lytic zone = ++; weak lytic zone = +; no lytic zone = −; conditions: 6 μg
Method: as §1

[12] = test system: Streptococcus pyogenes, D471; assay: plate lysis assay (spectrum of lytic activity); assay type: cell-based; parameters: key: strong lytic zone = ++; weak lytic zone = +; no lytic zone = −; conditions: 6 μg
Method: as §1

[13] = test system: Streptococcus suis, 730082; assay: plate lysis assay (spectrum of lytic activity); assay type: cell-based; parameters: key: strong lytic zone = ++; weak lytic zone = +; no lytic zone = −; conditions: 6 μg
Method: as §1

[14] = test system: Streptococcus uberis, ATCC 700407; assay: plate lysis assay (spectrum of lytic activity); assay type: cell-based; parameters: key: strong lytic zone = ++; weak lytic zone = +; no lytic zone = −; conditions: 6 μg
Method: as §1

B1: SH3_5GRCS: PlyGRCS cell wall binding SH3_5 domain, amino acids 150-250, SEQ ID NO: 7 (protein)
chain: NTFGNWKQNQYGTYYRNENATFTCGFLPIFARVGSPKLSEPNGYWFQPNGYTPYDEVCLSDGLVWIGYNWQGTRYYLPVRQWNGKTGNSYSIGLPWGVFS
modifications: Synthetically generated polypeptide (SH3_5GRCS (amino acids 150-250))
In the case of B1, the “lytic activity (in words)” value [1] is reported as “little to no lytic activity”, the “lytic activity (in words)” value ([1]; listed as SH3_5 binding domain) is reported as “lacked activity” and the Tm [2] is reported as 44.5 °C. The “binding to staphylococcal cell wall” value (S. aureus NRS-14) was “possessed the ability to specifically bind staphylococci” and the “binding to staphylococcal cell wall” value (S. aureus NRS-14; listed as SH3_5 binding domain) was “interact directly with the staphylococcal cell wall”.

B2: CHAPGRCS: PlyGRCS catalytic CHAP domain, amino acids 1-140, SEQ ID NO: 6 (protein)
chain: MKSQQQAKEWIYKHEGTGVDFDGAYGFQCMDLAVAYVYYITDGKVRMWGNAKDAINNDFKGLATVYENTPSFKPQLGDVAVYTNSQYGHIQCVISGNLDYYTCLEQNWLGGGFDGWEKATIRTHYYDGVTHFIRPKFSAS
modifications: Synthetically generated polypeptide (CHAPGRCS (amino acids 1-140))
With B2 the “strength of lytic zone” value [3] was “−”, the “lytic activity on plates (in words)” value ([4]; S. aureus NRS-384) was “relatively weak clearing zones” and the “strength of lytic zone” value ([4]; S. aureus NRS-384, MRSA) was “+”. For the same molecule, the “lytic activity on plates (in words)” value ([5]; S. aureus NRS-71) was “relatively weak clearing zones”, the “strength of lytic zone” value ([5]; S. aureus NRS-71, MRSA) was “+” and the “lytic activity on plates (in words)” value ([6]; S. epidermidis NRS-101) was “relatively weak clearing zones”. For the same molecule, the “strength of lytic zone” value ([6]; S. epidermidis NRS-101, MRSE) was “+”, the “strength of lytic zone” value (Bacillus pumulis, BJ0055) was “−” and the “strength of lytic zone” value [7] was “−”. For the same molecule, the “strength of lytic zone” value [8] was “−”, the “strength of lytic zone” value [9] was “−” and the “strength of lytic zone” value [10] was “−”. For the same molecule, the “strength of lytic zone” value [11] was “−”, the “strength of lytic zone” value [12] was “−” and the “strength of lytic zone” value [13] was “−”. The “strength of lytic zone” value [14] was “−”, the “lytic activity relative to full-length PlyGRCS” value [1] was 8-10% and the “lytic activity relative to full-length PlyGRCS” value ([1]; listed as CHAP domain) was “about 10%”. It also gave a Tm [2] of 44.8 °C.
